Laboratory results as given in patent publication US20200164029A1 (ACCELERON PHARMA, published 2020).
Blank lines part the entries; values can stand above or below the binder they belong to.

What was measured:
Experiment in all cases: SPR, captured hENG-hFc, soluble ligand
hENG(26-332)-hFc = molecular target: T1, hENG(26-332)-hFc (human, UniProt P17813 26-332)
T1 construct: not shown: human IgG1 Fc domain
T1 sequence: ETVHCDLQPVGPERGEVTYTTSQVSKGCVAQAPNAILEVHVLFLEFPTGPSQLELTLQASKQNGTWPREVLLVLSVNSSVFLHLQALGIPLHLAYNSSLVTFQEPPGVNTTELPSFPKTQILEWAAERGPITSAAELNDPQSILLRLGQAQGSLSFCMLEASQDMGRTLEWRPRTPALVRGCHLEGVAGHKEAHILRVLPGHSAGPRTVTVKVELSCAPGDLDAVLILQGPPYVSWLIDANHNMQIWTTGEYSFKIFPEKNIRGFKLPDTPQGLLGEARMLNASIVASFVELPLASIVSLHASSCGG

hENG(26-329)-hFc = molecular target: T2, hENG(26-329)-hFc (human, UniProt P17813 26-329)
T2 construct: not shown: human IgG1 Fc domain
T2 sequence: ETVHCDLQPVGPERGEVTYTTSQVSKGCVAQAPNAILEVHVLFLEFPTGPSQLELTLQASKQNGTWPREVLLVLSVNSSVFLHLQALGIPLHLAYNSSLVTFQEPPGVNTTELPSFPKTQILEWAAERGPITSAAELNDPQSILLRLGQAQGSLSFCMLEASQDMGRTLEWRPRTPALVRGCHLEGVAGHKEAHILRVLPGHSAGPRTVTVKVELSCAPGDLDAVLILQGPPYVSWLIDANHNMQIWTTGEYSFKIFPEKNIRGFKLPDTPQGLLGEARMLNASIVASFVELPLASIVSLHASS

hENG(360-586)-hFc = molecular target: T3, hENG(360-586)-hFc (human, UniProt P17813 360-586)
T3 construct: not shown: human IgG1 Fc domain
T3 sequence: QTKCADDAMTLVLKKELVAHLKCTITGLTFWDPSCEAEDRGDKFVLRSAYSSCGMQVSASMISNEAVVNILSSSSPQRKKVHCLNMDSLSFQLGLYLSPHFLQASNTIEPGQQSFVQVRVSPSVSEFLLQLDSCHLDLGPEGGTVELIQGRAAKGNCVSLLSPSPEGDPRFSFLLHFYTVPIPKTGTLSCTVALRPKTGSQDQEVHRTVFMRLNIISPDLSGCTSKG

hENG(438-586)-hFc = molecular target: T4, hENG(438-586)-hFc (human, UniProt P17813 438-586)
T4 construct: not shown: human IgG1 Fc domain
T4 sequence: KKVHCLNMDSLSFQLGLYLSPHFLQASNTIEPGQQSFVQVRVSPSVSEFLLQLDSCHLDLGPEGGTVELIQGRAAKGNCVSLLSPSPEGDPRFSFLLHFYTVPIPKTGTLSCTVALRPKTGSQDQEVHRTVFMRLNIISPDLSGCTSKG

hENG(458-586)-hFc = molecular target: T5, hENG(458-586)-hFc (human, UniProt P17813 458-586)
T5 construct: Expressed in COS cells, not purified; not shown: human IgG1 Fc domain
T5 sequence: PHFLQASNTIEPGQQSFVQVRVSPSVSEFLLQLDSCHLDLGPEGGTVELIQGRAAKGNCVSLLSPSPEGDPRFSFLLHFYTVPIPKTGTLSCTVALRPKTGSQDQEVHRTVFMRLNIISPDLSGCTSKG

hENG(61-346)-hFc = molecular target: T6, hENG(61-346)-hFc (human, UniProt P17813 61-346)
T6 construct: not shown: human IgG1 Fc domain
T6 sequence: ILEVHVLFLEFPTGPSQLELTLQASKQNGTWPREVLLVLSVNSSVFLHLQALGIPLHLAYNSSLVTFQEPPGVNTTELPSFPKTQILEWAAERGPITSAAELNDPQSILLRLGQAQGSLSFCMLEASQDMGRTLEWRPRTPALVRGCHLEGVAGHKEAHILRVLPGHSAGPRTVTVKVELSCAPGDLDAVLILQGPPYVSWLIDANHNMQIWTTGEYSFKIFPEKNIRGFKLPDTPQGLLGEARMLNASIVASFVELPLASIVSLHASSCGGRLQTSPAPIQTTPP

hENG(133-346)-hFc = molecular target: T7, hENG(133-346)-hFc (human, UniProt P17813 133-346)
T7 construct: not shown: human IgG1 Fc domain
T7 sequence: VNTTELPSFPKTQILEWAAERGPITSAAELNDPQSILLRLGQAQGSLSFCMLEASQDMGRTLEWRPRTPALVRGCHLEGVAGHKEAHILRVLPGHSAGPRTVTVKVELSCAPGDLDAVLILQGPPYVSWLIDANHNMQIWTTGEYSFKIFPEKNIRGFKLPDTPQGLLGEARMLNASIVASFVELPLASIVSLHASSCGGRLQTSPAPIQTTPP

hENG(166-346)-hFc = molecular target: T8, hENG(166-346)-hFc (human, UniProt P17813 166-346)
T8 construct: not shown: human IgG1 Fc domain
T8 sequence: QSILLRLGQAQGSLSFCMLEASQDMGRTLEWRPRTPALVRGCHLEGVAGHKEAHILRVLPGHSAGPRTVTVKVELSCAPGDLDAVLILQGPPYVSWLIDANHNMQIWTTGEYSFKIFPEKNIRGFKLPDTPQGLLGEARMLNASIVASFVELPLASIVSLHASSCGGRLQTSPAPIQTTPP

hENG(360-581)-hFc = molecular target: T9, hENG(360-581)-hFc (human, UniProt P17813 360-581)
T9 construct: not shown: human IgG1 Fc domain
T9 sequence: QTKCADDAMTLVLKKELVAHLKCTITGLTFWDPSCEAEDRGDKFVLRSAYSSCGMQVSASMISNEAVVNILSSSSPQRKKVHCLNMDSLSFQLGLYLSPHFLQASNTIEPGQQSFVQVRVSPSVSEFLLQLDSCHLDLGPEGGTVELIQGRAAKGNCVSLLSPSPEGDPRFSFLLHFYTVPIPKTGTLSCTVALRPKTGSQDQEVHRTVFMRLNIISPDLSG

hENG(458-581)-hFc = molecular target: T10, hENG(458-581)-hFc (human, UniProt P17813 458-581)
T10 construct: Expressed in COS cells, not purified; not shown: human IgG1 Fc domain
T10 sequence: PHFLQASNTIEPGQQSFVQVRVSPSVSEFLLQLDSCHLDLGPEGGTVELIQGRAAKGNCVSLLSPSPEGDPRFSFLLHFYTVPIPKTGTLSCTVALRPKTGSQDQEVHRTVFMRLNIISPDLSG

binding result (hENG(26-332)-hFc): no binding (tested: 100 nM)
binding result (hENG(26-329)-hFc): no binding (tested: 100 nM)
binding result (hENG(360-586)-hFc): no binding (tested: 100 nM)
binding result (hENG(438-586)-hFc): no binding (tested: 100 nM)
binding result (hENG(458-586)-hFc): no binding (tested: 100 nM)
binding result (hENG(61-346)-hFc): no binding (tested: 100 nM)
binding result (hENG(133-346)-hFc): no binding (tested: 100 nM)
binding result (hENG(166-346)-hFc): no binding (tested: 100 nM)
binding result (hENG(360-581)-hFc): no binding (tested: 100 nM)
binding result (hENG(458-581)-hFc): no binding (tested: 100 nM)
B1: human BMP-10 (ligand, UniProt O95393 317-424, looked up)
chain: NAKGNYCKRTPLYIDFKEIGWDSWIIAPPGYEAYECRGVCNYPLAEHLTPTKHAIIQALVHLKNSQKASKACCVPTKLEPISILYLDKGVVTYKFKYEGMAVSECGCR
notes: also called hBMP-10

binding result (hENG(26-332)-hFc): no binding (tested: 100 nM)
binding result (hENG(26-329)-hFc): no binding (tested: 100 nM)
binding result (hENG(360-586)-hFc): no binding (tested: 100 nM)
binding result (hENG(438-586)-hFc): no binding (tested: 100 nM)
binding result (hENG(458-586)-hFc): no binding (tested: 100 nM)
binding result (hENG(61-346)-hFc): no binding (tested: 100 nM)
binding result (hENG(133-346)-hFc): no binding (tested: 100 nM)
binding result (hENG(166-346)-hFc): no binding (tested: 100 nM)
binding result (hENG(360-581)-hFc): no binding (tested: 100 nM)
binding result (hENG(458-581)-hFc): no binding (tested: 100 nM)
B2: human BMP-9 (ligand, UniProt Q9UK05 320-429, looked up)
chain: SAGAGSHCQKTSLRVNFEDIGWDSWIIAPKEYEAYECKGGCFFPLADDVTPTKHAIVQTLVHLKFPTKVGKACCVPTKLSPISVLYKDDMGVPTLKYHYEGMSVAECGCR
notes: also called hBMP-9
